Measurements as given in patent US20180327500A1 (SYMPHOGEN A S, published 2018).
Where a chain is given by its changes, count along the chain named. Values belong to the binder of their own block, whether it stands above or below them.

Key:
Test in all cases: flow cytometry on transfected HEK293 cells;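 further: antibodies applied at 50 µg/ml, binding called specific when fluorescence exceeds the mean signal on a negative control chicken or mouse MET construct plus four SD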
LS4 = target: T1, LS4
T1 construct: human/mouse chimera on transfected HEK293 cells; also called AA 25-371
Experimental: (§1) Cut-off values defined as the average fluorescence signal of all antibodies tested at 50 μg/ml to the negative control chicken or mouse MET construct+four standard deviations were employed to discriminate background binding from specific binding for the domain exchange or blade exchange constructs.
T1 MET ECD-SV5-GPI fusion: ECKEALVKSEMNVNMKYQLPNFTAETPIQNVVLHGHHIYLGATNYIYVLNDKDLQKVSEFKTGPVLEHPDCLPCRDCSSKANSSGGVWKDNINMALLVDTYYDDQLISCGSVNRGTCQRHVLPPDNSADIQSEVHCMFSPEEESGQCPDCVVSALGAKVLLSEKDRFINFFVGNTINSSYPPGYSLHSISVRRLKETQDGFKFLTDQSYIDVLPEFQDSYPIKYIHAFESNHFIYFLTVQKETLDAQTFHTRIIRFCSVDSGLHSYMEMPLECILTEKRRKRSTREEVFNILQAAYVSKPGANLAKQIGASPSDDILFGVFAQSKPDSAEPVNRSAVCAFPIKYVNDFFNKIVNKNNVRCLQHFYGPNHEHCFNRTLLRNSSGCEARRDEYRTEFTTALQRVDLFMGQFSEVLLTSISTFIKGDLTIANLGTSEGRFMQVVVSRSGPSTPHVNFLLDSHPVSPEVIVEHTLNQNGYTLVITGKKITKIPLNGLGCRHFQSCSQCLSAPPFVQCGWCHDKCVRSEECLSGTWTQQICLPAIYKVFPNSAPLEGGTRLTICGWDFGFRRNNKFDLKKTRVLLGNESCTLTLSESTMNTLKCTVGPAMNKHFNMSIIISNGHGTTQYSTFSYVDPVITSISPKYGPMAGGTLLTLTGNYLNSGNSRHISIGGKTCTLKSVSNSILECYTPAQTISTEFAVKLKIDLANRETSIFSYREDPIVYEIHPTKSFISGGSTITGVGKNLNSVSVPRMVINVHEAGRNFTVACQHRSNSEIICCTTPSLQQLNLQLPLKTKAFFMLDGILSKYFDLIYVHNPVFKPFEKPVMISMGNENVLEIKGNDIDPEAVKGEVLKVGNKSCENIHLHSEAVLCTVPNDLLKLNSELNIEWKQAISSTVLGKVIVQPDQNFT

LS3 = target: T2, LS3
T2 construct: human/mouse chimera on transfected HEK293 cells; also called AA 25-312
Experimental: as §1
T2 MET ECD-SV5-GPI fusion: T1 MET ECD-SV5-GPI fusion with N303Q, K306R, P312L, S313N, V332M, N333D, V337M

Mouse MET = target: T3, Mouse MET
T3 construct: on transfected HEK293 cells; also called murine MET ECD-SV5-GPI
Experimental: as §1
T3 MET ECD-SV5-GPI fusion: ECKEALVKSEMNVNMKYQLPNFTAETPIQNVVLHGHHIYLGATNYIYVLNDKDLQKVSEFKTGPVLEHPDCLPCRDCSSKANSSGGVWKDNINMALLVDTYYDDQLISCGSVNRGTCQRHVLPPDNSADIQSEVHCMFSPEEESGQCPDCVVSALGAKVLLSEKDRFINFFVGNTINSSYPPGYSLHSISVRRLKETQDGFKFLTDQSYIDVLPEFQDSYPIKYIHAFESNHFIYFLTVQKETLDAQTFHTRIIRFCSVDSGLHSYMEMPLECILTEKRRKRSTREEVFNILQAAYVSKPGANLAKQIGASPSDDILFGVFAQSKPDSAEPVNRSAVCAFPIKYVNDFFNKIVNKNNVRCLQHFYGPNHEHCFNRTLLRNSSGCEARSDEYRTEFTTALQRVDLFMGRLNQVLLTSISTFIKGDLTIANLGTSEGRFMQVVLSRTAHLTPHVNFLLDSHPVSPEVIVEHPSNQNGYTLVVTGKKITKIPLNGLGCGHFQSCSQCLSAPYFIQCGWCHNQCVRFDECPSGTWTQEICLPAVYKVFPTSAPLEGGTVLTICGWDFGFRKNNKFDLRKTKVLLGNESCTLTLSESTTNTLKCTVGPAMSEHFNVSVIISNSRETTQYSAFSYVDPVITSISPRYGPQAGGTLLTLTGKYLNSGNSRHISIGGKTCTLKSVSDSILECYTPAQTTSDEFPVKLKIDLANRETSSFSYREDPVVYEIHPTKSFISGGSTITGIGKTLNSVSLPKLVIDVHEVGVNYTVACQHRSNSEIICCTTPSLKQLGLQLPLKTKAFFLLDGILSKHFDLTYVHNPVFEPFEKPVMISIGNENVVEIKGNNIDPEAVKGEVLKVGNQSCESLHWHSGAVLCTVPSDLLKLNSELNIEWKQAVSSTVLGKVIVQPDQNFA

- binding result (LS4): no binding (tested: 50 µg/ml)
- binding result (LS3): no binding (tested: 50 µg/ml)
- binding result (Mouse MET): no binding (tested: 50 µg/ml)
B1: humanized antibody 9006 (antibody, human IgG1, kappa, V domains shown)
VH: QVQLVQSGSELKKPGASVKVSCKASGYTFTNFRMNWVKQAPGQGLKWMGWINTYTGEPTYVDDLKGRFVFSLDTSVSTAYLQISSLKAEDTAVYYCARKGIARAMDYWGQGTTVTVSS
VL: DIVMTQSPDSLAVSLGERATINCKSSQSLLDSGNQKNYLAWYQQKPGQPPKLLIFGASTRESGVPDRFSGSGSGTDFTLTISSLQAEDVAVYYCQNDHSYPYTFGQGTKLEIKR
notes: also called Hu9006; hu9006

- binding result (LS4): no binding (tested: 50 µg/ml)
- binding result (LS3): no binding (tested: 50 µg/ml)
- binding result (Mouse MET): no binding (tested: 50 µg/ml)
B2: humanized antibody 9338 (antibody, human IgG1, kappa, V domains shown)
VH: QVQLVQSGAEVKKPGSSVKVSCKASGYTFTSYWMHWVRQAPGQGLEWMGYINPSSGHIENNQKFKDRVTITADKSTSTAYMELSSLRSEDTAVYYCARGRFAYWGQGTLVTVSS
VL: EIVLTQSPATLSLSPGERATLSCSASSSVSSGYLYWYQQKPGQAPRLLIYSTSNLASGIPARFSGSGSGTDFTLTISSLEPEDFAVYYCHQWSSYPFTFGSGTKLEIKR
notes: also called Hu9338; hu9338
